Laboratory results as given in US20040161826A1, “Thermostable enzymes having aminotransferase activity, nucleic acids encoding them and methods of making and using them” (priority 1999, published 2004).

How the values were obtained:
[1] = biological target: aromatic amino acid aminotransferase (Pyrococcus horikoshii, UniProt O59096); test: Amino group transfer reaction with phenylalanine as donor, phenylpyruvic acid traced at 280 nm; format: biochemical, Pyrococcus horikoshi; conditions: receptor 2-ketoglutaric acid, pH 8.0, 25° C.
Procedure: Then, kinetic parameters of each substrate were compared. […] Next, a change in the amount of NADH was traced with a change in absorbance at 340 nm, and then kinetic parameters, Kcat and Km values were measured.
When hydrophobic substrate (phenylalanine) was used as an amino group donor, the amount of reaction product (phenylpyruvic acid) was traced with a change in absorbance at 280 nm, and then Kcat and Km values were measured.

[2] = substrate: N[C@@H](CC(=O)O)C(=O)O; test: purified protein, by the assay type; conditions: other: amino group donor aspartic acid, receptor 2-ketoglutaric acid, pH 8.0, 25° C.
[3] = Optimum temperature and optimum pH from Kapp, DTNB reduction traced at 412 nm; format: biochemical, Pyrococcus horikoshi; conditions: substrates L-cysteic acid and 2-ketoglutaric acid
Procedure: The presence of aminotransferase activity can be determined by any means.
Optimum temperature and optimum pH were measured as described below using L-cysteic acid and 2-ketoglutaric acid as substrates. Optimum temperature was determined according to the temperature dependence of the Kapp value which was determined by varying the reaction temperature from 30° C. to 98° C. in 50 mM phosphate buffer (pH6.5), tracing an increase in absorbance at 412 nm resulting from reduction of 5,5′-Dithiobis ([…]) (DTNB), finding Kapp value from the initial velocity.
Optimum pH was determined according to pH dependence of the Kapp value which was determined under the measurement conditions as described above by maintaining the reaction temperature at 90° C., and varying the pH of an enzyme reaction solution from 3.4 to 7.5, finding Kapp.

[4] = Thermal stability: residual activity after heating; format: physicochemical, Pyrococcus horikoshi; conditions: pH 6.5, 95° C. for 6 hours, 0.1 mg/ml in 20 mM phosphate buffer
Procedure: Thermal stability was analyzed by measurement of residual activity after heating and with a differential scanning calorimeter (DSC). To measure residual activity after heating, this enzyme (0.1 mg/ml) was heated for a certain period of time at 95° C. and at 110° C. in 20 mM phosphate buffer (pH6.5) and quenched. Then, residual activity was measured.

[5] = Thermal stability: differential scanning calorimeter (DSC); format: physicochemical, Pyrococcus horikoshi
Procedure: Thermal stability was analyzed by measurement of residual activity after heating and with a differential scanning calorimeter (DSC).
In measurement with DSC, a DSC (type CSC5100™, Calolimetry Science) was used. Cell temperature was increased from 0 to 125° C. (1 K/min), and then a change in thermal capacity of the enzyme protein in 20 mM phosphate buffer (pH6.5) was measured. Enzyme concentration employed was 1 mg/ml.

[6] = pH stability by circular dichrograph (CD); format: physicochemical, Pyrococcus horikoshi; conditions: 25° C.
Procedure: pH stability was analyzed using a circular dichrograph (CD, type J-720W, JASCO Corporation). The pH of an enzyme solution (0.1 mg/ml) was varied from 1.0 to 13.0, a change in intensity of negative ellipicity[q] at 25° C. was measured, so that pH stability was found.

Isoelectric focusing = format: physicochemical, Pyrococcus horikoshi

Which Kcat [1] does the source give for `N[C@@H](Cc1ccccc1)C(=O)O` [phenylalanine] here?
The Kcat was 12 s⁻¹.

B1: aromatic amino acid aminotransferase (Pyrococcus horikoshii OT3) (protein)
chain: MALSDRLELVSASEIRKLFDIAAGMKDVISLGIGEPDFDTPQHIKEYAKEALDKGLTHYGPNIGLLELREAIAEKLKKQNGIEADPKTEIMVLLGANQAFLMGLSAFLKDGEEVLIPTPAFVSYAPAVILAGGKPVEVPTYEEDEFRLNVDELKKYVTDKTRALIINSPCNPTGAVLTKKDLEEIADFVVEHDLIVISDEVYEHFIYDDARHYSIASLDGMFERTITVNGFSKTFAMTGWRLGFVAAPSWIIERMVKFQMYNATCPVTFIQYAAAKALKDERSWKAVEEMRKEYDRRRKLVWKRLNEMGLPTVKPKGAFYIFPRIRDTGLTSKKFSELMLKEARVAVVPGSAFGKAGEGYVRISYATAYEKLEEAMDRMERVLKERKLV
For B1, which kcat [2] is on record?
Its kcat is 0.18 s⁻¹.

What about the kcat/Km [2] of the same molecule?
Its kcat/Km is 1.7 M⁻¹ s⁻¹.

B2: this enzyme: thermostable aminotransferase of Pyrococcus horikoshi JCM9974, 388 residues, homodimeric, expressed recombinantly in E. coli (protein, listed as Pyrococcus horikoshi)
chain: B1 chain
Which optimum temperature ([3]; 50 mM phosphate buffer pH 6.5, 30° C. to 98° C.) does the source give for B2 here?
Its optimum temperature is 90 °C.

What about the “optimum pH” value ([3]; 90° C., pH 3.4 to 7.5) of the same molecule?
The value was 6.0.

What about the Kapp value ([3]; pH 6.5, 90° C.) of the same molecule?
Its Kapp value is 139 s⁻¹.

What about the “residual activity after heating” value [4] of the same molecule?
Its value is “remained stable, or was not deactivated”.

And the denaturation ([5]; DSC, pH 6.5)?
Its denaturation is “irreversible”.

What about the enthalpy change ([5]; at the melting temperature, pH 6.5) of the same molecule?
The enthalpy change was 574 kcal/mol.

What about the “melting temperature (Tm value)” value ([5]; pH 6.5, 20 mM phosphate buffer, 1 mg/ml, 1 K/min) of the same molecule?
The value was 120.1 °C.

And the “pH range over which the enzyme remains stable” value ([6]; for 24 hours or more, 0.1 mg/ml)?
The value was 4 to 11.

And the a-helix content ([6]; pH 6.5)?
The a-helix content was 40%.

And the isoelectric point (Isoelectric focusing)?
Its isoelectric point is 5.2.
